Test results: the supplement of paper PMC11316812
± gives the standard deviation of the averaged measurements.

How the values were obtained:
MCF7 = experiment: percentage of EdU-negative (G0-arrested) nuclei per well, 72 h; higher = more G0 arrest; details: reference: sequence is the full UniProt precursor, the tested protein was the secreted form or ectodomain
hTERT-HMEC = experiment: as above; details: reference: sequence is the full UniProt precursor, the tested protein was the secreted form or ectodomain
[1] = protein concentration 0.0308875 µM
[2] = protein concentration 0.308875 µM
[3] = protein concentration 0.0225 µM
[4] = protein concentration 0.02075 µM
[5] = protein concentration 0.2075 µM
[6] = protein concentration 0.01575 µM
[7] = protein concentration 0.1575 µM
[8] = protein concentration 0.0357143 µM
[9] = protein concentration 0.357143 µM
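Note: secreted proteins added to cultured cells, EdU pulse at the end, nuclei found by Hoechst imaging, EdU status from nuclear versus surrounding ring intensity ratio, PBS as neutral control.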

In the case of “MALQRTHSLLLLLLLTLLGLGLVQPSYGQDGMYQRFLRQHVHPEETGGSDRYCNLMMQRRKMTLYHCKRFNTFIHEDIWNIRSICSTTNIQCKNGKMNCHEGVVKVTDCRDTGSSRAPNCRYRAIASTRRVVIACEGNPQVPVHFDG”, the “percentage of EdU-negative” value (MCF7; [1]) is reported as 25 ± 2.2%, the “percentage of EdU-negative” value (MCF7; [2]) is reported as 25.6 ± 4.4% and the “percentage of EdU-negative” value (hTERT-HMEC; [1]) is reported as 4.98 ± 0.26%. The “percentage of EdU-negative” value (hTERT-HMEC; [2]) was 4.74 ± 0.71%.
For “MNAFLLSALCLLGAWAALAGGVTVQDGNFSFSLESVKKLKDLQEPQEPRVGKLRNFAPIPGEPVVPILCSNPNFPEELKPLCKEPNAQEILQRLEEIAEDPGTCEICAYAACTGC”, the “percentage of EdU-negative” value (MCF7; [3]) was 27.03 ± 0.26%, the “percentage of EdU-negative” value (MCF7; protein concentration 0.225 µM) was 24.3 ± 0.35% and the “percentage of EdU-negative” value (hTERT-HMEC; [3]) was 5.03 ± 0.081%. For the same substance, the “percentage of EdU-negative” value (hTERT-HMEC; protein concentration 0.225 µM) was 5.29 ± 0.21%.
With “MEKKWKYCAVYYIIQIHFVKGVWEKTVNTEENVYATLGSDVNLTCQTQTVGFFVQMQWSKVTNKIDLIAVYHPQYGFYCAYGRPCESLVTFTETPENGSKWTLHLRNMSCSVSGRYECMLVLYPEGIQTKIYNLLIQTHVTADEWNSNHTIEIEINQTLEIPCFQNSSSKISSEFTYAWSVENSSTDSWVLLSKGIKEDNGTQETLISQNHLISNSTLLKDRVKLGTDYRLHLSPVQIFDDGRKFSCHIRVGPNKILRSSTTVKVFAKPEIPVIVENNSTDVLVERRFTCLLKNVFPKANITWFIDGSFLHDEKEGIYITNEERKGKDGFLELKSVLTRVHSNKPAQSDNLTIWCMALSPVPGNKVWNISSEKITFLLGSEISSTDPPLSVTESTLDTQPSPASSVSPARYPATSSVTLVDVSALRPNTTPQPSNSSMTTRGFNYPWTSSGTDTKKSVSRIPSETYSSSPSGAGSTLHDNVFTSTARAFSEVPTTANGSTKTNHVHITGIVVNKPKDGMSWPVIVAALLFCCMILFGLGVRKWCQYQKEIMERPPPFKPPPPPIKYTCIQEPNESDLPYHEMETL” the “percentage of EdU-negative” value (MCF7; [4]) was 25.5 ± 0.86%, the “percentage of EdU-negative” value (MCF7; [5]) was 29.5 ± 0.78% and the “percentage of EdU-negative” value (hTERT-HMEC; [4]) was 4.86 ± 1%. For the same substance, the “percentage of EdU-negative” value (hTERT-HMEC; [5]) was 12.1 ± 1.3%.
“MAAVVAATRWWQLLLVLSAAGMGASGAPQPPNILLLLMDDMGWGDLGVYGEPSRETPNLDRMAAEGLLFPNFYSANPLCSPSRAALLTGRLPIRNGFYTTNAHARNAYTPQEIVGGIPDSEQLLPELLKKAGYVSKIVGKWHLGHRPQFHPLKHGFDEWFGSPNCHFGPYDNKARPNIPVYRDWEMVGRYYEEFPINLKTGEANLTQIYLQEALDFIKRQARHHPFFLYWAVDATHAPVYASKPFLGTSQRGRYGDAVREIDDSIGKILELLQDLHVADNTFVFFTSDNGAALISAPEQGGSNGPFLCGKQTTFEGGMREPALAWWPGHVTAGQVSHQLGSIMDLFTTSLALAGLTPPSDRAIDGLNLLPTLLQGRLMDRPIFYYRGDTLMAATLGQHKAHFWTWTNSWENFRQGIDFCPGQNVSGVTTHNLEDHTKLPLIFHLGRDPGERFPLSFASAEYQEALSRITSVVQQHQEALVPAQPQLNVCNWAVMNWAPPGCEKLGKCLTPPESIPKKCLWSH” was tested, and the “percentage of EdU-negative” value (MCF7; [6]) was 27.9 ± 1.1%, the “percentage of EdU-negative” value (MCF7; [7]) was 26.9 ± 0.35% and the “percentage of EdU-negative” value (hTERT-HMEC; [6]) was 5.59 ± 0.71%. For the same substance, the “percentage of EdU-negative” value (hTERT-HMEC; [7]) was 24.2 ± 1.3%.
With “MMRTCVLLSAVLWCLTGVQCPRFTLFNKKGFIYGKTGQPDKIYVELHQNSPVLICMDFKLSKKEIVDPTYLWIGPNEKTLTGNNRINITETGQLMVKDFLEPLSGLYTCTLSYKTVKAETQEEKTVKKRYDFMVFAYREPDYSYQMAVRFTTRSCIGRYNDVFFRVLKKILDSLISDLSCHVIEPSYKCHSVEIPEHGLIHELFIAFQVNPFAPGWKGACNGSVDCEDTTNHNILQARDRIEDFFRSQAYIFYHNFNKTLPAMHFVDHSLQVVRLDSCRPGFGKNERLHSNCASCCVVCSPATFSPDVNVTCQTCVSVLTYGAKSCPQTSNKNQQYED [Q6X784]” the “percentage of EdU-negative” value (MCF7; [8]) was 24.6 ± 1.8%, the “percentage of EdU-negative” value (MCF7; [9]) was 28.8 ± 3.5% and the “percentage of EdU-negative” value (hTERT-HMEC; [8]) was 4.95 ± 0.69%. For the same substance, the “percentage of EdU-negative” value (hTERT-HMEC; [9]) was 6.88 ± 0.23%.
For “MTRTYENFQYLENKVKVQGFKNGPLPLQSLLQRLCSGPCHLLLSLGLGLLLLVIICVVGFQNSKFQRDLVTLRTDFSNFTSNTVAEIQALTSQGSSLEETIASLKAEVEGFKQERQAGVSELQEHTTQKAHLGHCPHCPSVCVPVHSEMLLRVQQLVQDLKKLTCQVATLNNNASTEGTCCPVNWVEHQDSCYWFSHSGMSWAEAEKYCQLKNAHLVVINSREEQNFVQKYLGSAYTWMGLSDPEGAWKWVDGTDYATGFQNWKPGQPDDWQGHGLGGGEDCAHFHPDGRWNDDVCQRPYHWVCEAGLGQTSQESH [Q8IUN9]”, the “percentage of EdU-negative” value (MCF7; [3]) was 24.9 ± 1%, the “percentage of EdU-negative” value (MCF7; protein concentration 0.225 µM) was 26.5 ± 0.74% and the “percentage of EdU-negative” value (hTERT-HMEC; [3]) was 5.25 ± 0.3%. The “percentage of EdU-negative” value (hTERT-HMEC; protein concentration 0.225 µM) was 4.954 ± 0.011%.
For Q9HBE5, the “percentage of EdU-negative” value (MCF7; [8]) was 24.6 ± 3%, the “percentage of EdU-negative” value (MCF7; [9]) was 26.38 ± 0.26% and the “percentage of EdU-negative” value (hTERT-HMEC; [8]) was 4.85 ± 0.64%. The “percentage of EdU-negative” value (hTERT-HMEC; [9]) was 5.88 ± 0.38%.
“MKASSLAFSLLSAAFYLLWTPSTGLKTLNLGSCVIATNLQEIRNGFSEIRGSVQAKDGNIDIRILRRTESLQDTKPANRCCLLRHLLRLYLDRVFKNYQTPDHYTLRKISSLANSFLTIKKDLRLCHAHMTCHCGEEAMKKYSQILSHFEKLEPQAAVVKALGELDILLQWMEETE [Q9NYY1]” was tested, and the “percentage of EdU-negative” value (MCF7; [3]) was 25.2 ± 0.85%, the “percentage of EdU-negative” value (MCF7; protein concentration 0.225 µM) was 27.2 ± 2.3% and the “percentage of EdU-negative” value (hTERT-HMEC; [3]) was 4.59 ± 0.14%. For the same substance, the “percentage of EdU-negative” value (hTERT-HMEC; protein concentration 0.225 µM) was 8.36 ± 0.57%.
“MALRVVRSVRALLCTLRAVPSPAAPCPPRPWQLGVGAVRTLRTGPALLSVRKFTEKHEWVTTENGIGTVGISNFAQEALGDVVYCSLPEVGTKLNKQDEFGALESVKAASELYSPLSGEVTEINEALAENPGLVNKSCYEDGWLIKMTLSNPSELDELMSEEAYEKYIKSIEE” was tested, and the “percentage of EdU-negative” value (MCF7; [3]) was 25.5 ± 2.2%, the “percentage of EdU-negative” value (MCF7; protein concentration 0.225 µM) was 26.3 ± 3.4% and the “percentage of EdU-negative” value (hTERT-HMEC; [3]) was 4.5 ± 0.0069%. For the same substance, the “percentage of EdU-negative” value (hTERT-HMEC; protein concentration 0.225 µM) was 10.4 ± 2.3%.
